Results published in PMC4586518 (2015).

Target: Melanocortin-1 receptor (MC-1R) (Mus musculus, UniProt Q01727)
Assay: radioligand competition binding with [125I]-α-MSH on B16 cells

Sequence of Melanocortin-1 receptor (MC-1R) (Q01727 whole entry): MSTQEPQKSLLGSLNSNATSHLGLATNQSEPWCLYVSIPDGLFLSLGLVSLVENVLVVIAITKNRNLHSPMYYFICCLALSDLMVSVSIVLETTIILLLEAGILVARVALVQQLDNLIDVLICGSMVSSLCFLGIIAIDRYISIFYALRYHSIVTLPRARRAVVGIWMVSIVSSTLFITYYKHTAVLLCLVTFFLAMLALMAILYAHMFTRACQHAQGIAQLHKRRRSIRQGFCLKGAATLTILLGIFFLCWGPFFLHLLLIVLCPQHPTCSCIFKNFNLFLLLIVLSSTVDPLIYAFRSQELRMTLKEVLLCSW

For SYSMEHFR [ACTH(1-8)], which Kd is on record?
Its Kd is 88 nM.
